From article PMC5624674

B1: α-FtsZ fusion protein (wild-type E. coli FtsZ) [E. coli] / α-FtsZ fusion protein (wild-type E. coli FtsZ) [E. coli] (parent)
chain 1: MFEPMELTNDAVIKVIGVGGGGGNAVEHMVRERIEGVEFFAVNTDAQALRKTAVGQTIQIGSGITKGLGAGANPEVGRNAADEDRDALRAALEGADMVFIAAGMGGGTGTGAAPVVAEVAKDLGILTVAVVTKPFNFEGKKRMAFAEQGITELSKHVDSLITIPNDKLLKVLGRGISLLDAFGAANDVLKGAVQGIAELITRPGLMNVDFADVRTVMSEMGYAMMGSGVASGEDRAEEAAEMAISSPLLEDIDLSGARGVLVNITAGFDLRLDEFETVGNTIRAFASDNATVVIGTSLDPDMNDELRVTVVATGIGMDKRPEITLVTNKQVQQPVMDRYQQHGMAPLTQEQKPVAKVVNDNAPQTAKEPDYLDIPAFLRKQAD
chain 2: B1 chain 1
B2: unnamed (parent)
chain 1: MKTLPVLPGQAASSRPSPVEIWQILLSRLLDQHYGLTLNDTPFADERVIEQHIEAGISLCDAVNFLVEKYALVRTDQPGFSACTRSQLINSIDILRARRATGLMTRDNYRTVNNITLGKYPEAK
chain 2: B1 chain 1
B3: unnamed (parent)
chain 1: B2 chain 1
chain 2: MLKKFRGMFSNDLSIDLGTANTLIYVKGQGIVLNEPSVVAIRQDRAGSPKSVAAVGHDAKQMLGRTPGNIAAIRPMKDGVIADFFVTEKMLQHFIKQVHSNSFMRPSPRVLVCVPVGATQVERRAIRESAQGAGAREVFLIEEPMAAAIGAGLPVSEATGSMVVDIGGGTTEVAVISLNGVVYSSSVRIGGDRFDEAIINYVRRNYGSLIGEATAERIKHEIGSAYPGDEVREIEVRGRNLAEGVPRGFTLNSNEILEALQEPLTGIVSAVMVALEQCPPELASDISERGMVLTGGGALLRNLDRLLMEETGIPVVVAEDPLTCVARGGGKALEMIDMHGGDLFSEE

Variants of: B1
Test: bacterial two-hybrid β-galactosidase assay
Details: with α-FtsZ fusion protein (wild-type E. coli FtsZ) [E. coli]; 100 μM IPTG; parent: 320; read off a plot

Variant | response [Miller Units]
chain 1 F182S | 260
chain 1 L179R | 250

Variants of: B2
Test: bacterial two-hybrid β-galactosidase assay
Details: with partner chain of the complex shown; 25 μM IPTG; parent: 1.5e+03; read off a plot

Variant | response [Miller Units]
chain 1 F65S | 75
chain 1 R15C | 1300

Same assay, conditions: with partner chain of the complex shown; 100 μM IPTG; parent: 2e+03; read off a plot

Variant | response [Miller Units]
chain 2 L179R | 250
chain 2 F182S | 260

Variants of: B3
Test: bacterial two-hybrid β-galactosidase assay
Details: with partner chain of the complex shown; 100 μM IPTG; parent: 310; read off a plot

Variant | response [Miller Units]
chain 1 R15C | 130
chain 1 F65S | 330
